Experimental data reported in patent US20100048482.

Biological target: heat shock protein 90 (HSP90), endogenous, rat heart, P82995

B1: epsilon protein kinase C (εPKC), endogenous, rat heart (protein)
chain: MVVFNGLLKIKICEAVSLKPTAWSLRHAVGPRPQTFLLDPYIALNVDDSRIGQTATKQKTNSPAWHDEFVTDVCNGRKIELAVFHDAPIGYDDFVANCTIQFEELLQNGSRHFEDWIDLEPEGKVYVIIDLSGSSGEAPKDNEERVFRERMRPRKRQGAVRRRVHQVNGHKFMATYLRQPTYCSHCRDFIWGVIGKQGYQCQVCTCVVHKRCHELIITKCAGLKKQETPDEVGSQRFSVNMPHKFGIHNYKVPTFCDHCGSLLWGLLRQGLQCKVCKMNVHRRCETNVAPNCGVDARGIAKVLADLGVTPDKITNSGQRRKKLAAGAESPQPASGNSPSEDDRSKSAPTSPCDQELKELENNIRKALSFDNRGEEHRASSSTDGQLASPGENGEVRQGQAKRLGLDEFNFIKVLGKGSFGKVMLAELKGKDEVYAVKVLKKDVILQDDDVDCTMTEKRILALARKHPYLTQLYCCFQTKDRLFFVMEYVNGGDLMFQIQRSRKFDEPRSGFYAAEVTSALMFLHQHGVIYRDLKLDNILLDAEGHSKLADFGMCKEGILNGVTTTTFCGTPDYIAPEILQELEYGPSVDWWALGVLMYEMMAGQPPFEADNEDDLFESILHDDVLYPVWLSKEAVSILKAFMTKNPHKRLGCVAAQNGEDAIKQHPFFKEIDWVLLEQKKMKPPFKPRIKTKRDVNNFDQDFTREEPILTLVDEAIVKQINQEEFKGFSYFGEDLMP
  CPK release into the effluent during reperfusion, hearts perfused with ψεHSP90 peptide (1 µM): perfusion with ψεHSP90 peptide decreased CPK release by 47%
